T1: amphyphisin SH3 (AMPH_HUMAN), P49418
T1 chain: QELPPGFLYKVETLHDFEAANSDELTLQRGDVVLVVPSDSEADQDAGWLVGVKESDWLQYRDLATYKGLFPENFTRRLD


Tests used:
[1] = molecular target: endophilin SH3 (SH3G2_HUMAN), Q99962; experiment: SPOT array
[2] = molecular target: T1, amphyphisin SH3 (AMPH_HUMAN), P49418; experiment: SPOT array

normalised SPOT signal, Boehringer light units (BLU); mean over the file's lines of this peptide [1] | normalised SPOT signal, Boehringer light units (BLU); mean over the file's lines of this peptide [2] | Binder
68.6 | -0 | NQKQLKRPAQGKRQ [Q9H6S7 54-67]
2290 | 1620 | NSHLLPRPLRHLAS [P47901 342-355]
196 | 105 | PAGELSRPKKDMSD [P78325 461-474]
6400 | 67.5 | NRWGPGRPPFRKAQ [Q9Y2K9 813-827]
792 | 2460 | PAAPPKKPPRPGAP [Q05397 868-882]
3150 | 678 | ARLPPPRPQRPAET [Q9NQE0 226-239]
27.2 | 13 | ARNQLRRPQYRPQY [P16989 219-232]
165 | 24.3 | NSMGIKRPAPQPAS [O94830 308-321]
141 | 48.6 | NTAKPTRPPSESSS [Q9Y2E7 460-474]
1720 | 599 | PALSPTRPPKKPLD [O60593 320-334]
26.5 | 23.4 | NQSVPKRPAGSVQN [P00533 1094-1107]
50.4 | 28 | PAAAPRRPFSWEDV [O95696 687-700]
2920 | 4650 | NVLVPSRPPRNPYD [BAC03435 232-246]
267 | 45.8 | NNPLIGRPNKVTTV [O60306 1318-1331]
36 | 19 | NYKNIKRPPGDIMF [Q9Y310 97-110]
2200 | 64.4 | PAAPPKRPAVASAR [P27816 749-762]
652 | 150 | NNRVLRRPSERGRA [Q9Y3S6 986-999]
452 | 3660 | NMNRFDRPDRNVRQ [Q9ULU1 327-340]
505 | 43.8 | NSFSPQKPPGHSSR [Q9BX63 202-216]
48.9 | 21.1 | PAASPRRPAPRTGP [Q96S08 21-34]
81.5 | 497 | NSPTLERPGRKRKW [Q9H247 116-129]

normalised SPOT signal, Boehringer light units (BLU); mean over the file's lines of this peptide [1] | normalised SPOT signal, Boehringer light units (BLU); mean over the file's lines of this peptide [2] | Binder
105 | 2350 | NVSSFRRPRRSSDK [Q9P2Y5 686-699]
1060 | 641 | NMSDPRRPNKVLRY [Q9Y284 5-18]
31.6 | 30.4 | ARKQPRRPHFLLEP [O60289 975-988]
23.4 | 29.7 | NLSLLRRPGEKTYT [P23246 281-294]
7270 | 109 | PAARPRRPPTTLPP [Q9HCM5 24-37]
430 | 379 | PAALLYRPVRQYVY [Q9NZB2 597-610]
39.5 | 7.2 | NSSSFKRPDGEMNI [O00463 504-517]
81.5 | 4.9 | PAALLRRPGLGRLV [P30049 3-16]
18800 | 4020 | NSSRPGRPPKRSLG [Q96NX9 174-188]
91.8 | 43 | ARLYLRRPAADGAE [Q14181 572-585]
176 | 37.1 | NSSHIKRPMNAFMV [Q9UN79 402-415]
1450 | 3320 | PAAPPRRPPQSASS [Q02080 268-282]
104 | 57.1 | PAPGLRRPLSPPAA [Q9UK39 24-37]
0 | 125 | NSDTPPRPDRLPLD [Q05209 516-529]
64.8 | 49.5 | PAHPFRRPKLSGRS [Q9ULT6 397-410]
256 | 194 | NTFHILRPTKAPGF [Q9Y2L0 734-747]
182 | 43.7 | PAPPPVKPPPSPVN [Q8TF74 224-238]
102 | 318 | NPALFPRPERYNPQ [P15538 413-426]
84 | 37.6 | NVPIPERPPPVPPP [Q96BJ8 361-375]
464 | 78.8 | NSRNPRRPPPSSVN [Q96T16 198-211]
95.7 | 362 | NSAGISRPSRVSDA [P54296 461-474]

From article PMC314469, “Protein Interaction Networks by Proteome Peptide Scanning” (PLoS Biology, 2004)
